Test results: US20140161800A1 (published 2014)

Key:
[1] = molecular target: T1, prostate-specific membrane antigen (PSMA) (human, UniProt Q04609 1-750); test: FACS binding; LNCaP cells
[2] = molecular target: T1, prostate-specific membrane antigen …; test: FACS binding; C4-2 cells; apparent EC50

T1 sequence (Q04609 whole entry): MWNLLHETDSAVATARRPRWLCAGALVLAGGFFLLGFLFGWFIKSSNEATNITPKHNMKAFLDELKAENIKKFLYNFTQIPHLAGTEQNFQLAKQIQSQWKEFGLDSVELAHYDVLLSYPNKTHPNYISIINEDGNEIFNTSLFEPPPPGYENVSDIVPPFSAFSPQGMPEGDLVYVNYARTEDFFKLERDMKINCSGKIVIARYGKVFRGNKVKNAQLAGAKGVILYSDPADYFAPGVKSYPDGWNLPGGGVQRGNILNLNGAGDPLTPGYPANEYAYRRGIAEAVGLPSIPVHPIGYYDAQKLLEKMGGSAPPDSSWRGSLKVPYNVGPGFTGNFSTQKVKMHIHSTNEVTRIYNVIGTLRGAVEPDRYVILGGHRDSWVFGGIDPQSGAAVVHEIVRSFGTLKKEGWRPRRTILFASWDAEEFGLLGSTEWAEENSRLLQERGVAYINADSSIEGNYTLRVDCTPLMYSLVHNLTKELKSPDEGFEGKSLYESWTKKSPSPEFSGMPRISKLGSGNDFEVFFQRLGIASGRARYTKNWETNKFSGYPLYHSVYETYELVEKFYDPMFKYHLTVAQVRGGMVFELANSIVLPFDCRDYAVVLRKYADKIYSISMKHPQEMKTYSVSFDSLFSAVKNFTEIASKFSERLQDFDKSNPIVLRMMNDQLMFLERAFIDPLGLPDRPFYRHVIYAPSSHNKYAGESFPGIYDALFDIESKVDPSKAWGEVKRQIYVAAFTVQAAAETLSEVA

B1: 107-1A4 murine monoclonal antibody (antibody, V domains shown)
VH: EIQLQQSGPELVKPGASVKMSCKASGYTFTDYYMHWVKQNNGESLEWIGYFNPYNDYTRYNQNFNGKATLTVDKSSSTAYMQLNSLTSEDSAFYYCARSDGYYDAMDYWGQGTSVTVSS
VL: DVQITQSPSYLAASPGETITINCRASKSISKYLAWYQEKPGKANKLLIHSGSTLQSGIPSRFSGSGSGTDFTLTISSLEPEDFAMYYCQQHIEYPWTFGGGTKLEIKR
Binder B1 has an EC50 [1] of 5.4 nM.

B2: TSC085 chimeric SMIP (murine 107-1A4 VL-VH scFv-human Fc) (Fc fusion)
chain: DVQITQSPSYLAASPGETITINCRASKSISKYLAWYQEKPGKANKLLIHSGSTLQSGIPSRFSGSGSGTDFTLTISSLEPEDFAMYYCQQHIEYPWTFGGGTKLEIKRAGGGGSGGGGSSGGGGSEIQLQQSGPELVKPGASVKMSCKASGYTFTDYYMHWVKQNNGESLEWIGYFNPYNDYTRYNQNFNGKATLTVDKSSSTAYMQLNSLTSEDSAFYYCARSDGYYDAMDYWGQGTSVTVSSSEPKSSDKTHTCPPCPAPEAAGAPSVFLFPPKPKDTLMISRTPEVTCVVVDVSHEDPEVKFNWYVDGVEVHNAKTKPREEQYNSTYRVVSVLTVLHQDWLNGKAYACAVSNKALPAPIEKTISKAKGQPREPQVYTLPPSRDELTKNQVSLTCLVKGFYPSDIAVEWESNGQPENNYKTTPPVLDSDGSFFLYSKLTVDKSRWQQGNVFSCSVMHEALHNHYTQKSLSLSPGK
B2 was tested, and the EC50 [1] was 4.9 nM.

B3: TSC188 humanized SMIP (107-1A4 VL-VH#1 scFv-Fc) (Fc fusion)
chain: DIQMTQSPSAMSASVGDRVTITCRASKSISKYLAWFQQKPGKVPKLRIHSGSTLQSGVPSRFSGSGSGTEFTLTISSLQPEDFATYYCQQHIEYPWTFGQGTKVEIKRGGGGSGGGGSGGGGSEVQLVQSGAEVKKPGATVKISCKASGYTFTDYYMHWVQQAPGKGLEWMGYFNPYNDYTRYAEKFQGRVTITADTSTDTAYMELSSLRSEDTAVYYCARSDGYYDAMDYWGQGTTVTVSSSEPKSSDKTHTCPPCPAPEAAGAPSVFLFPPKPKDTLMISRTPEVTCVVVDVSHEDPEVKFNWYVDGVEVHNAKTKPREEQYNSTYRVVSVLTVLHQDWLNGKAYACAVSNKALPAPIEKTISKAKGQPREPQVYTLPPSRDELTKNQVSLTCLVKGFYPSDIAVEWESNGQPENNYKTTPPVLDSDGSFFLYSKLTVDKSRWQQGNVFSCSVMHEALHNHYTQKSLSLSPGK
Binder B3 has an EC50 [2] of 3.2 nM.

B4: TSC189 humanized SMIP (107-1A4 VL-VH#2 scFv-Fc) (Fc fusion)
chain: DIQMTQSPSAMSASVGDRVTITCRASKSISKYLAWFQQKPGKVPKLRIHSGSTLQSGVPSRFSGSGSGTEFTLTISSLQPEDFATYYCQQHIEYPWTFGQGTKVEIKRGGGGSGGGGSGGGGSQVQLVQSGAEVKKPGASVKVSCKASGYTFTDYYMHWVRQAPGQGLEWMGYFNPYNDYTRYAQKFQGRVTMTRDTSISTAYMELSSLRSDDTAVYYCARSDGYYDAMDYWGQGTTVTVSSSEPKSSDKTHTCPPCPAPEAAGAPSVFLFPPKPKDTLMISRTPEVTCVVVDVSHEDPEVKFNWYVDGVEVHNAKTKPREEQYNSTYRVVSVLTVLHQDWLNGKAYACAVSNKALPAPIEKTISKAKGQPREPQVYTLPPSRDELTKNQVSLTCLVKGFYPSDIAVEWESNGQPENNYKTTPPVLDSDGSFFLYSKLTVDKSRWQQGNVFSCSVMHEALHNHYTQKSLSLSPGK
B4 was tested, and the EC50 [2] was 2.1 nM.

B5: TSC092 chimeric SMIP (murine 107-1A4 VH-VL scFv-human Fc) (Fc fusion)
chain: EIQLQQSGPELVKPGASVKMSCKASGYTFTDYYMHWVKQNNGESLEWIGYFNPYNDYTRYNQNFNGKATLTVDKSSSTAYMQLNSLTSEDSAFYYCARSDGYYDAMDYWGQGTSVTVSSGGGGSGGGGSSGGGGSDVQITQSPSYLAASPGETITINCRASKSISKYLAWYQEKPGKANKLLIHSGSTLQSGIPSRFSGSGSGTDFTLTISSLEPEDFAMYYCQQHIEYPWTFGGGTKLEIKRASSEPKSSDKTHTCPPCPAPEAAGAPSVFLFPPKPKDTLMISRTPEVTCVVVDVSHEDPEVKFNWYVDGVEVHNAKTKPREEQYNSTYRVVSVLTVLHQDWLNGKAYACAVSNKALPAPIEKTISKAKGQPREPQVYTLPPSRDELTKNQVSLTCLVKGFYPSDIAVEWESNGQPENNYKTTPPVLDSDGSFFLYSKLTVDKSRWQQGNVFSCSVMHEALHNHYTQKSLSLSPGK
With B5 the EC50 [1] was 4 nM.
